Data as given in patent EP4520771A2 (Genmab A/S, dated 2025).
Like-named read-outs stand apart in the source and are kept apart here.

Key:
[1] = biological target: T1, human epidermal growth factor receptor 2 (HER2) (human, UniProt P04626 23-1255); assay: cell-based or functional assay
[2] = biological target: T1, human epidermal growth factor receptor …; assay: cell-based or functional assay; remark: listed apart in the source
[3] = biological target: T1, human epidermal growth factor receptor …; assay: cell-based or functional assay; remark: listed apart in the source
[4] = biological target: T1, human epidermal growth factor receptor …; assay: cell-based or functional assay; remark: listed apart in the source
[5] = biological target: T1, human epidermal growth factor receptor …; assay: cell-based or functional assay; remark: listed apart in the source
[6] = biological target: T1, human epidermal growth factor receptor …; assay: flow cytometry on A431 cells
[7] = biological target: T1, human epidermal growth factor receptor …; assay: flow cytometry on AU565 cells

Binder | % cells killed (maximal), AU565 cells, anti-kappa-ETA'-conjugated antibody [1] [%] | EC50 of AU565 cell kill, anti-kappa-ETA'-conjugated antibody [1] [mg/L] | % cells killed (maximal), AU565 cells, anti-kappa-ETA'-conjugated antibody [2] [%] | EC50 of AU565 cell kill, anti-kappa-ETA'-conjugated antibody [2] [mg/L] | % cells killed (maximal), A431 cells, anti-kappa-ETA'-conjugated antibody [3] [%] | EC50 of A431 cell kill, anti-kappa-ETA'-conjugated antibody [3] [mg/L] | further results
HER2 antibody 106 (antibody, V domains shown) VH: EVQLVQSGAEVKKPGESLKISCKGSGYSFTRYWIGWVRQMPGKGLEWMGIIYPGDSDTRYSPSFQGQVTISADKSISTAYLQWSSLKASDTAMYYCARLTGDRGFDYYSGMDVWGQGTTVTVSS VL: not shown | 59.1 | 0.108 | – | – | – | – | –
HER2 antibody 084 (antibody, V domains shown) VH: QVQLVQSGAEVKKPGSSVKVSCKASGGTFRTYAINWVRQAPGQGLEWMGRINTVLGIVNHAQKFQGRVTITADKSTNTAYMELNSLRSEDTAVYYCAREKGVDYYYGIEVWGQGTTVTVSS VL: DIQMTQSPSSVSASVGDRVTITCRASQGISSWLAWYQHKPGKAPKLLIYVASTLQSGVPSRFSGSGSGTDFTLTISSLQPEDFATYYCQQANSFPLTFGGGTKVEIK | – | – | 58.1 | 0.027 | 50.5 | – | –
HER2 antibody 050 (antibody, V domains shown) VH: EVQLLESGGGLVQPGGSLRLSCAASGFTFSSYAMNWVRQAPGKGLEWVSAISGRGGTTYYADSVKGRFTISRDNSKNTLYLQMSSLRAEDTAVYYCAKARANWDYFDYWGQGTLVTVSS VL: DIQMTQSPSSVSASVGDRVTITCRASQGISSWLAWYQHKPGKAPKLLIYAASILQSGVPSRFSGSGSGTDFTLTISSLQPEDFATYYCQQANSFPITFGQGTRLEIK | – | – | 52.4 | 0.0127 | – | – | –
HER2 antibody 111 (antibody, V domains shown) VH: QVQLVQSGAEVKKPGSSVKVSCKASGGTFSSYGISWVRQAPGPGLEWMGRIIPILGIANYAQKFQGRVTITADKSTNTAYMELSSLRSEDTAVYYCARDQEYSSNWYYWGQGTLVTVSS VL: not shown | 72 | 0.0242 | – | – | – | – | EC50 of A431 cell kill, anti-kappa-ETA'-conjugated antibody [4]: ~0.01 mg/L
HER2 antibody 005 (antibody, human IgG1, V domains shown, human IgG1,κ; also called HuMab 005; PC1014-005) VH: EVQLVQSGAEVKKPGESLKISCKASGYSFHFYWIGWVRQMPGKGLEWMGSIYPGDSDTRYRPSFQGQVTISADKSISTAYLQWTSLKASDTAIYYCARQRGDYYYFYGMDVWGQGTTVTVSS VL: not shown | 69.7 | 0.0151 | – | – | – | – | EC50 of A431 cell kill, anti-kappa-ETA'-conjugated antibody [5]: ~0.0101 mg/L; binding result [6]: binds
HER2 antibody 159 (antibody, V domains shown) VH: EVQLVQSGAEVKKPGESLKISCKGSGYNFTSYWIGWVRQMPGKGLEWMGIIYPGDSDTRYSPSFQGQVTISADKSISTAYLQWSSLKASDTAMYYCARWGTYYDILTGYFNWFDPWGQGTLVTVSS VL: DIQMTQSPSSLSASVGDRVTITCRASQGISSWLAWYQQKPEKAPKSLIYAASSLQSGVPSRFSGSGSGTDFTLTISSLQPEDFATYYCQQYYIYPWTFGQGTKVEIK | – | – | 70.3 | 0.0349 | – | – | –
HER2 antibody 091 (antibody, V domains shown) VH: QVQLQQWGAGLLKPSETLSLTCAVSGGSFSGYYWTWIRQPPGKGLEWIGEIYHSGDTNYNPSLKSRVTISVDTSKNQFSLKLYSVTAADTAVYYCARLYFGSGIYYLDYWGQGTLVTVSS VL: DIQMTQSPSSLSASVGDRVTITCRASQGISSWLVWYQQKPEKAPKSLIYAASSLQSGVPSRFSGSGSGTDFTLTISSLQPEDFATYYCQQYNSFPPTFGQGTKVEIK | – | – | 50.6 | 0.0465 | 83.3 | ~0.00986 | –
HER2 antibody 098 (antibody, V domains shown, also called PC1014-098; TH1014-098) VH: EVQLLESGGGLVQPGGSLRLSCAASGFTFSNYGMSWVRQAPGKGLEWVSAISGSAYSTYYADSVKGRFTISRDNSKNTLWLQMNSLRAEDTAVYYCAKAHYHGSGSYYTLFDYWGQGTLVTVSS VL: DIQMTQSPSSLSASVGDRVTITCRASQGISSWLAWYQQKPEKAPKSLIYAASSLQSGVPSRFSGSGSGTDFTLTISSLQPEDFATYYCQQYNSYPYTFGQGTKLEIK | – | – | 58.7 | 0.0121 | 87.2 | 0.00165 | EC50 [7]: 0.336 mg/L; EC50 [6]: 0.068 mg/L
HER2 antibody 025 (antibody, V domains shown, also called HuMab-025; PC1014-025) VH: QVQLQQWGAGLLKPSETLSLTCAVYGGSFSDYYWNWIRQPPGKGLEWIGEIHHSGSTNYNPSLKSRVTISVDTSKNQFSLKLSSVTAADTAVYYCARGYYDSGVYYFDYWAQGTLVTVSS VL: DIQMTQSPSSLSASVGDRVTITCRASQGISRWLAWYQQKPEKAPKSLIYAASSLRSGVPSRFSGSGSGTDFTLTISSLQPEDFATYYCQQYNSYPITFGQGTRLEIK | – | – | 60 | 0.0167 | 86.7 | ~0.00977 | binding result [6]: binds
HER2 antibody 153 (antibody, V domains shown) VH: QVQLVESGGGVVQPGRSLRLSCAASGFTFSDYVIHWVRQAPGKGLEWVTVISYDGSNKYYADSVKGRFTISRDNSKNTLYLQMNSLSAEDTAMYYCARGGITGTTGVFDYWGQGTLVTVSS VL: DIQMTQSPSSLSASVGDRVTITCRASQGISSWLAWYQQKPEKAPKSLIYDASSLQSGVPSRFSGSGYGTDFSLTISSLQPEDFAIYYCQQYKSYPITFGQGTRLEIK | – | – | 60.3 | 0.0323 | 82.4 | ~0.0101 | –
HER2 antibody 132 (antibody, V domains shown) VH: QVQLVQSGAEVKKPGASVKVSCKASGYTFTSYGISWVRQAPGQGLEWMGWISAYNGNSNYVQKFQGRVTMTTDTTTSTAYMELRSLTSDDTAVYYCAREYSYDSGTYFYYGMDVWGQGTTVTVSS VL: EIVLTQSPATLSLSPGERATLSCRASQSVSSYLAWYQQKPGQAPRLLIYDASNRATGIPARFSGSGSGTDFTLTISSLEPEDFAVYYCQQRSNWPMYTFGQGTKLEIK | – | – | 61.6 | 0.0394 | – | – | –
HER2 antibody 169 (antibody, V domains shown) VH: QVQLVQSGAEVKKPGASVKVSCKASGYTFTNYGISWVRQAPGQGLEWMGWLSAYSGNTIYAQKLQGRVTMTTDTSTTTAYMELRSLRSDDTAVYYCARDRIVVRPDYFDYWGQGTLVTVSS VL: EIVLTQSPATLSLSPGERATLSCRASQSVSSYLAWYQQKPGQAPRLLIYDASNRATGIPARFSGSGSGTDFTLTISSLEPEDFAVYYCQQRSNWPRTFGQGTKVEIK | – | – | 49.9 | 0.0356 | 34 | – | –
HER2 antibody 127 (antibody, V domains shown) VH: EVQLVQSGAEVKKPGESLTISCKGSGYSFSIYWIGWVRQMPGKGLEWMGIIFPGDSDIRYSPSFQGQVTISADKSISTAYLQWSSLKASDTAMYYCARQPGDWSPRHWYFDLWGRGTLVTVSS VL: VIWMTQSPSLLSASTGDRVTISCRMSQGISSYLAWYQQKPGKAPELLIYAASTLQSGVPSRFSGSGSGTDFTLTISYLQSEDFATYYCQQYYSFPLTFGGGTKVEIK | – | – | 69 | 0.0345 | – | – | –
HER2 antibody 059 (antibody, V domains shown) VH: QVQLVQSGAEVKKPGASVRVPCKASGYTFTRYGISWVRQAPGQGLEWMGWISAYNGKTYYAQKLQGRVTMTTDTSTSTAYMELRSLRSDDTAVYYCARSPLLWFEELYFDYWGQGTLVTVSS VL: EIVLTQSPGTLSLSPGERATLSCRASQSVSSTYLAWYQQKPGQAPRLLIYGASSRATGIPDRFSGSGSGTDFTLTISRLEPEDFAVYYCQQYGTSLFTFGPGTKVDIK | 67 | 0.0677 | – | – | – | – | –
HER2 antibody 129 (antibody, V domains shown) VH: QVQLVESGGGVVQPGRSLRLSCAASGFTFSTFAIHWVRQAPGKGLEWVAVISYDGGHKFYADSVKGRFTISRDNSKNTLYLQMNSLRAEDTAMYYCARGLGVWGAFDYWGQGTLVTVSS VL: EIVLTQSPATLSLSPGERATLSCRASQSVSSYLAWYQQKPGQAPRLLIYDASNRATGIPARFSGSGSGTDFTLTISSLEPEDFAVYYCQQRSNWWTFGQGTKVEIK | – | – | 60.8 | 0.0309 | 75.9 | ~0.0106 | –
HER2 antibody 060 (antibody, V domains shown) VH: EVQLVQSGAEVKKPGESLKISCKGSGYRFTSYWIGWVRQMPGKGLEWMGSIYPGDSYTRNSPSFQGQVTISADKSIATAYLQWNSLKASDTAMYYCARHAGDFYYFDGLDVWGQGTTVTVSS VL: not shown | 64.3 | 0.0794 | – | – | – | – | EC50 of A431 cell kill, anti-kappa-ETA'-conjugated antibody [5]: ~0.01 mg/L
